T1: GFP-9S library array, motif 4 ND N98C;D124N (synthetic construct, N98C;D124N)
T1 chain: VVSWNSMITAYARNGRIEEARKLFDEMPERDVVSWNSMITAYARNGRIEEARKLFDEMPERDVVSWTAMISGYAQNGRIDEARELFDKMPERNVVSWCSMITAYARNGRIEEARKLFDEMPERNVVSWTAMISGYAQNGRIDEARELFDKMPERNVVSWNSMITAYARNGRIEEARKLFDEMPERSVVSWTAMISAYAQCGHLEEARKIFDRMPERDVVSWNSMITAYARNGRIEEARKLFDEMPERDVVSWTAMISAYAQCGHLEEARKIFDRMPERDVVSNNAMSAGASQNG

T2: GFP-9S library array, motif 4 ND N98S;D124S (synthetic construct, N98S;D124S)
T2 chain: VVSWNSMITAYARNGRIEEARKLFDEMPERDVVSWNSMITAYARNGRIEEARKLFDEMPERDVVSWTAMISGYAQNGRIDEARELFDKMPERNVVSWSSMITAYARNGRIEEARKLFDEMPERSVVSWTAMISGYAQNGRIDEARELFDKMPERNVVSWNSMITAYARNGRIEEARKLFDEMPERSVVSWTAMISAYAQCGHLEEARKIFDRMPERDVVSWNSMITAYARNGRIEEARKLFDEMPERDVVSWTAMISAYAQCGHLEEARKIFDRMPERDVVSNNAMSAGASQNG

T3: GFP-9S library array, motif 4 ND N98Q;D124R (synthetic construct, N98Q;D124R)
T3 chain: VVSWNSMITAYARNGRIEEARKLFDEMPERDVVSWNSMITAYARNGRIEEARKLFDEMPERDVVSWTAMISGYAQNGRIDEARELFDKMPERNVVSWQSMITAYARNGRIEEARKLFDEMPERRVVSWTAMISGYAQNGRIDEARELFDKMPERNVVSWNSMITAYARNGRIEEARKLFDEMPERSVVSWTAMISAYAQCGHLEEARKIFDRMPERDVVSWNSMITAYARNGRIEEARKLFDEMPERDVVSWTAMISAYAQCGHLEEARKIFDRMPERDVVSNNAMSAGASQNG

T4: GFP-9S library array, motif 4 ND N98P;D124T (synthetic construct, N98P;D124T)
T4 chain: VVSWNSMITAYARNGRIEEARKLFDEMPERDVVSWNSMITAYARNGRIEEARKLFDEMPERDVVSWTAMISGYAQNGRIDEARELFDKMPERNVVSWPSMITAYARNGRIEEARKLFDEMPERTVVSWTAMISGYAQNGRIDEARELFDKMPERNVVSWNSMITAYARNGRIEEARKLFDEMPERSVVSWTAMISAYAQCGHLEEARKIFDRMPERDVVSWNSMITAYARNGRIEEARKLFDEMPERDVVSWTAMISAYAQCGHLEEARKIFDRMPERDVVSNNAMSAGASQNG

T5: GFP-9S library array, motif 4 ND N98C;D124M (synthetic construct, N98C;D124M)
T5 chain: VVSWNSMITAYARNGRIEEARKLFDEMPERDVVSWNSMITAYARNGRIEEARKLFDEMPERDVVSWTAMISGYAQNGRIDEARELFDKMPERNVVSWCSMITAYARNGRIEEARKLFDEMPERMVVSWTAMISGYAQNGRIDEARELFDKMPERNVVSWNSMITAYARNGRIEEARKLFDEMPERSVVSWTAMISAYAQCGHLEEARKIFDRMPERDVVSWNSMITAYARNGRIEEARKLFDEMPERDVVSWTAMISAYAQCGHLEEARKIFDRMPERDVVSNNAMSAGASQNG


Columns and labels:
Experiment in all cases: high-throughput RNA pulldown from lysate on Ni-NTA beads; HRP: 50 mM Tris pH 8, 150 mM NaCl, 1 mM beta-mercaptoethanol, 50 ug/ml BSA, 3 ug/ml yeast RNA, 0.5% heparin; ITC and FP: Tris pH 8, 200 mM KCl, 5% glycerol; MST: 50 mM Tris pH 8, 200 mM NaCl, 1 mM DTT, BSA, heparin, 0.05% Tween 20
Conditions in all cases: tags: N-terminal His-eGFP
[1] = biological target: T1, GFP-9S library array, motif 4 ND …
[2] = biological target: T2, GFP-9S library array, motif 4 ND …
[3] = biological target: T3, GFP-9S library array, motif 4 ND …
[4] = biological target: T4, GFP-9S library array, motif 4 ND …
[5] = biological target: T5, GFP-9S library array, motif 4 ND …

| Binder | Kd ([1]; label: 5' IRDye 800CW) | Kd ([2]; label: 5' IRDye 800CW) | Kd ([3]; label: 5' IRDye 800CW) | Kd ([4]; label: 5' IRDye 800CW) | Kd ([5]; label: 5' IRDye 800CW) | Kd ([1]; label: 5' Cy5) | Kd ([2]; label: 5' Cy5) | Kd ([3]; label: 5' Cy5) | Kd ([4]; label: 5' Cy5) | Kd ([5]; label: 5' Cy5) |
| --- | --- | --- | --- | --- | --- | --- | --- | --- | --- | --- |
| AUUAAACGUGA (ssRNA) [IR-rpoA-A] | 45 nM | 65.3 nM | 201 nM | 405 nM | 266 nM |  |  |  |  |  |
| AUUAUACGUGA (ssRNA) [IR-rpoA-U] | 152 nM | 69.8 nM | 138 nM | 179 nM | 179 nM |  |  |  |  |  |
| AUUAGACGUGA (ssRNA) [Cy5-rpoA-G] |  |  |  |  |  | 346 nM | 251 nM | 77.7 nM | 177 nM | 113 nM |
| AUUACACGUGA (ssRNA) [Cy5-rpoA] |  |  |  |  |  | 213 nM | 112 nM | 95.2 nM | 176 nM | 90.5 nM |

Reference: publication PMC8809517, “Cofactor-independent RNA editing by a synthetic S-type PPR protein”
